Columns and labels:
[1] = substrate: CC[C@H](C)[C@H](NC(=O)[C@@H](NC(=O)[C@H](CC(=O)O)NC(=O)CNC(=O)[C@H](C)NC(=O)[C@H](C)NC(=O)[C@@H]1CCCN1C(=O)[C@H](C)NC(=O)[C@H](CC(C)C)NC(=O)[C@H](CC(C)C)NC(=O)[C@@H](NC(=O)[C@H](CC(C)C)NC(=O)[C@H](C)NC(=O)[C@@H](N)CC(=O)O)[C@@H](C)O)[C@@H](C)O)C(=O)N[C@H](C(=O)N[C@@H](CO)C(=O)N[C@@H](CC(C)C)C(=O)N[C@@H](CC(=O)O)C(=O)N[C@@H](Cc1ccccc1)C(=O)O)[C@@H](C)CC; experiment: (§1) Hydroxylation activity of human PHD2
[2] = substrate: CC[C@H](C)[C@H](NC(=O)[C@H](Cc1ccc(O)cc1)NC(=O)[C@@H]1CCCN1C(=O)[C@H](C)NC(=O)[C@H](CC(C)C)NC(=O)[C@H](CCSC)NC(=O)[C@H](CCC(=O)O)NC(=O)[C@H](CC(C)C)NC(=O)[C@H](CC(=O)O)NC(=O)[C@H](CC(C)C)NC(=O)[C@@H](N)CC(=O)O)C(=O)N1CCC[C@H]1C(=O)N[C@@H](CCSC)C(=O)N[C@@H](CC(=O)O)C(=O)N[C@@H](CC(=O)O)C(=O)N[C@@H](CC(=O)O)C(=O)N[C@@H](Cc1ccccc1)C(=O)N[C@@H](CCC(N)=O)C(=O)N[C@@H](CC(C)C)C(=O)O; experiment: as §1

B1: Egl nine homolog 1 (Homo sapiens), Q9GZT9 (protein)
chain: MANDSGGPGGPSPSERDRQYCELCGKMENLLRCSRCRSSFYCCKEHQRQDWKKHKLVCQGSEGALGHGVGPHQHSGPAPPAAVPPPRAGAREPRKAAARRDNASGDAAKGKVKAKPPADPAAAASPCRAAAGGQGSAVAAEAEPGKEEPPARSSLFQEKANLYPPSNTPGDALSPGGGLRPNGQTKPLPALKLALEYIVPCMNKHGICVVDDFLGKETGQQIGDEVRALHDTGKFTDGQLVSQKSDSSKDIRGDKITWIEGKEPGCETIGLLMSSMDDLIRHCNGKLGSYKINGRTKAMVACYPGNGTGYVRHVDNPNGDGRCVTCIYYLNKDWDAKVSGGILRIFPEGKAQFADIEPKFDRLLFFWSDRRNPHEVQPAYATRYAITVWYFDADERARAKVKYLTGEKGVRVELNKPSDSVGKDVF
- Km [1]: 44 µM
- Km [2]: 37 µM
